Assay results reported in PMC3769986 (Soft matter, 2011).
Like-named read-outs stand apart in the source and are kept apart here.

Legend:
[1] = target: the molecule itself; test: small angle neutron scattering
[2] = target: the molecule itself; test: small angle neutron scattering; remark: listed apart in the source

B1: 17H6 (other)
chain: MGHHHHHHHHHHSSGHIHMAAAQEAAAAQAAAQAEAAQAAQAAAQEAAAAQAAAQAEAAQAAQAAAQEAAAAQAAAQAEAAQAAQAAAQEAAAAQAAAQAEAAQAAQAAAQEAAAAQAAAQAEAAQAAQAAAQEAAAAQAAAQAEAAQAAQAGGYGGMG
- stoichiometry N [1]: 266 ± 3
- stoichiometry N [2]: 171 ± 2
